Patent US12419964B2, “Antibody drug conjugate (ADC) targeting Nectin 4 and comprising an exatecan payload” (ELI LILLY AND COMPANY, priority 2023, dated 2025)

T1: Nectin-4 (Homo sapiens, UniProt Q96NY8)
T1 construct: endogenous in cells
T1 sequence (Q96NY8 32-510): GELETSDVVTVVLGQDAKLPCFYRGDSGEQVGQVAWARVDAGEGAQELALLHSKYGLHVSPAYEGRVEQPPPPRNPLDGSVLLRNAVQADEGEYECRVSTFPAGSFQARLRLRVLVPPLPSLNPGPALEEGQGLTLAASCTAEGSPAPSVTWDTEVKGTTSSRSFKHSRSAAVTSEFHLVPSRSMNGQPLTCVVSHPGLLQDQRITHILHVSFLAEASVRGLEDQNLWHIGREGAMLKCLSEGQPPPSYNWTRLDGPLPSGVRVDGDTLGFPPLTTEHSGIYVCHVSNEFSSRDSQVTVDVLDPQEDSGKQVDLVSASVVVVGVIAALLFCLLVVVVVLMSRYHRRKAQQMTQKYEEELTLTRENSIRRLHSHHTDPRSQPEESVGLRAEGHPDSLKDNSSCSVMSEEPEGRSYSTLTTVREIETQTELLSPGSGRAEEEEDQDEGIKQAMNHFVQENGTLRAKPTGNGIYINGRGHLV


Assays:
[1] = target: T1, Nectin-4; settings: described in WO2022/207822 and WO2022/207825; cited from earlier work
[2] = Hydrophobic interaction chromatography (HIC) versus naked 15A7.5 mAb; format: physicochemical; settings: compared with naked 15A7.5 mAb (FIG. 2)
Description: As determined by SEC-HPLC, less than 5% material was aggregated. […] (See FIG. 2 and corresponding Brief Description). […] (See FIG. 3 and corresponding Brief Description). In vitro cytotoxic activity was assessed for the HCT-116-2G10 clone expressing human nectin-4. (See FIG. 4 and corresponding Brief Description).

Molecule	selectivity of affinity, tumor cells versus keratinocytes [1]	hydrophilicity by HIC profile [2]
15A7.5: anti-Nectin-4 monoclonal antibody described in WO2022/207822 and WO2022/207825 (antibody) heavy: EVQLVESGGGLVQPGGSLRLSCAASGFTFSNYGMAWVRQAPGKGLEWVSFISNLAYGINYADTVTGRFTISRDNAKNSLYLQMNSLRAEDTAVYYCARGARATGWFAYWGQGTLVTVSSASTKGPSVFPLAPSSKSTSGGTAALGCLVKDYFPEPVTVSWNSGALTSGVHTFPAVLQSSGLYSLSSVVTVPSSSLGTQTYICNVNHKPSNTKVDKRVEPKSCDKTHTCPPCPAPEFEGGPSVFLFPPKPKDTLMISRTPEVTCVVVDVSHEDPEVKFNWYVDGVEVHNAKTKPREEQYNSTYRVVSVLTVLHQDWLNGKEYKCKVSNKALPASIEKTISKAKGQPREPQVYTLPPSREEMTKNQVSLTCLVKGFYPSDIAVEWESNGQPENNYKTTPPVLDSDGSFFLYSKLTVDKSRWQQGNVFSCSVMHEALHNHYTQKSLSLSPGK light: DIQMTQSPSSLSASVGDRVTITCKASQNVDTHVAWYQQKPGKAPKALIYSASYRYSGVPSRFSGSGSGTDFTLTISSLQPEDFATYYCQQYNSYPLTFGGGTKVEIKRTVAAPSVFIFPPSDEQLKSGTASVVCLLNNFYPREAKVQWKVDNALQSGNSQESVTEQDSKDSTYSLSSTLTLSKADYEKHKVYACEVTHQGLSSPVTKSFNRGEC	selective affinity for tumor cells versus keratinocytes	–
ETx-22: ADC of H1L2_15A7.5 anti-Nectin-4 mAb (HC SEQ ID NO:5, LC SEQ ID NO:6) conjugated via cysteines to exatecan Linker-Payload of Formula (L-P′) (conjugate, exatecan linker-payload conjugated via cysteines) heavy: EVQLVESGGGLVQPGGSLRLSCAASGFTFSNYGMAWVRQAPGKGLEWVSFISNLAYGINYADTVTGRFTISRDNAKNSLYLQMNSLRAEDTAVYYCARGARATGWFAYWGQGTLVTVSSASTKGPSVFPLAPSSKSTSGGTAALGCLVKDYFPEPVTVSWNSGALTSGVHTFPAVLQSSGLYSLSSVVTVPSSSLGTQTYICNVNHKPSNTKVDKRVEPKSCDKTHTCPPCPAPEFEGGPSVFLFPPKPKDTLMISRTPEVTCVVVDVSHEDPEVKFNWYVDGVEVHNAKTKPREEQYNSTYRVVSVLTVLHQDWLNGKEYKCKVSNKALPASIEKTISKAKGQPREPQVYTLPPSREEMTKNQVSLTCLVKGFYPSDIAVEWESNGQPENNYKTTPPVLDSDGSFFLYSKLTVDKSRWQQGNVFSCSVMHEALHNHYTQKSLSLSPGK light: DIQMTQSPSSLSASVGDRVTITCKASQNVDTHVAWYQQKPGKAPKALIYSASYRYSGVPSRFSGSGSGTDFTLTISSLQPEDFATYYCQQYNSYPLTFGGGTKVEIKRTVAAPSVFIFPPSDEQLKSGTASVVCLLNNFYPREAKVQWKVDNALQSGNSQESVTEQDSKDSTYSLSSTLTLSKADYEKHKVYACEVTHQGLSSPVTKSFNRGEC	–	high homogenous hydrophilicity
